# Assays:
# [1] = system: GST-NDR1; assay: GST-NDR1 in vitro autophosphorylation, incorporated 32P by Cerenkov counting; format: biochemical, human
# Protocol: BL21-DE3-pRep4 E. coli strain was transformed with the pGEX-2T_NDR1 wild type or mutant plasmids. BL21-DE3 is a protease-deficient E. coli strain and pRep4 is a Laclq repressor-bearing plasmid both available commercially. Optionally, if desired, an E. coli strain comprising GroESL can be used, which expresses a chaperone protein that stabilizes the kinase. Mid-logarithmic phase cells were induced with 0.5 mM isopropyl beta-D-thiogalactopyranoside (IPTG) for 4 hours at 30° C. Bacteria were lysed using a French press in the presence of 1 mg/ml lysosyme, and the fusion proteins were purified on glutathione-agarose (Amersham Pharmacia Biotech) as described by the manufacturers. Recombinant proteins were assayed for kinase activity as described below and autophosphorylation was determined after SDS-PAGE separation either by Cerenkov counting or by exposure to a PhosphorImager screen followed by analysis with ImageQuant software (Molecular Dynamics).
# In brief, 1 microgram of purified GST-NDR1 (in solution ˜0.5 microM) wild type, kinase dead (K118A), and alanine mutants of phosphorylation residues Thr74, Ser281, and Thr444 were autophosphorylated for 2 hours in vitro without further additions or in the presence of 1 mM CaCl2 and 10 microM bovine S100B. Proteins were visualized on SDS gels using Coomassie Blue R-350 stained SDS-PAGE gel, and [gamma-^32P]ATP-labelled proteins were visualized by autoradiography of the gels developed on a Phosphorimager screen. The amount of incorporated ^32P was quantified by Cerenkov counting.
# [2] = system: GST-NDR1; assay: GST-NDR1 kinase assay (peptide kinase assay); format: biochemical, human
# Protocol: 1 microgram of purified recombinant GST-NDR1 wild type and mutants (without further treatment or autophosphorylated for 2 h in the presence or absence of 1 mM CaCl2 and […] (Sigma)) were assayed in 20 microliter of reaction mixture containing 20 mM Tris-HCl pH 7.5, 10 mM MgCl2, 1 mM DTT, 100 microM [gamma-^32P]ATP (˜0.5 microCi/microliter), and 1 mM NDR1 substrate peptide ([…]; SEQ ID NO:22). After 30 mins incubation at 30° C., reactions were stopped with 50 mM EDTA, and 10 microliters of reaction mixture were spotted onto 2 cm^2 squares of P81 phosphocellulose paper (Whatman). These were subsequently washed for 4×5 min and 3×20 min in 1% phosphoric acid and once in acetone before counting in a liquid scintillation counter. One unit of NDR1 activity was defined as the amount which catalyses the phosphorylation of 1 nmol peptide substrate in 1 min.
# Specific activity of GST-NDR1 mutants was also measured by a peptide kinase assay as described above. For this purpose, 1 microgram of purified GST-NDR1 wild type and alanine mutants were left without further treatment or autophosphorylated for 2 h in the presence or absence of 1 mM CaCl2 and […].
# [3] = system: myc-hMOB1; assay: Co-immunoprecipitation of HA-NDR and myc-hMOB1 from COS-1 cells; format: binding, human; conditions: COS-1 cells treated with OA prior to lysis
# Protocol: HA-tagged hNDR and myc-tagged hMOB1 were cotransfected in COS1 cells, which were stimulated with okadaic acid or solvent alone. After cell lysis and extract preparation, HA-NDR was immunoprecipitated and co-immunoprecipitated myc-hMOB1 detected or Myc-hMOB1 was immunoprecipitated and co-immunoprecipitated HA-NDR detected.
# HA-NDR, wt and mutants, and myc-hMOB1 were cotransfected into COS-1 cells and the cells were treated with OA prior to lysis. HA-NDR was immunoprecipitated and the coimmunoprecipitated myc-hMOB1 detected. […] Furthermore, the two important in vivo phosphorylation sites of NDR, serine-281 in the activation segment and the hydrophobic motif site threonine-444 in the C-terminal regulatory domain were tested, as well as the threonine 74 site in the N-terminal regulatory domain, for their role in NDR-MOB interaction.
# HA-NDR N-terminal point mutants and myc-mob1 were co-transfected into COS1 cells which were treated with OA prior to lysis. HA-NDR mutants were immunoprecipitated and coimmunoprecipitated myc-hMOB1 detected.
# In this Example, the effect of treatment of COS1 cells with BAPTA-AM on the NDR-MOB Interaction was determined. […] HA-NDR was immunoprecipitated and co-immunoprecipitated myc-MOB1 detected. The kinase activity of the HA-NDR immunoprecipitates was measured in a peptide kinase assay.
molecule,measurement,setting,value
"S281A: NDR1 alanine mutant of phosphorylation residue Ser281; GST fusion or HA-tagged (protein, left off: small tags and cut ends, NDR1 alanine mutant of phosphorylation residue Ser281; GST fusion or HA-tagged) MAMTGSTPCSSMSNHTKERVTMTKVTLENFYSNLIAQHEEREMRQKKLEKVMEEEGLKDEEKRLRRSAHARKETEFLRLKRTRLGLEDFESLKVIGRGAFGEVRLVQKKDTGHVYAMKILRKADMLEKEQVGHIRAERDILVEADSLWVVKMFYSFQDKLNLYLIMEFLPGGDMMTLLMKKDTLTEEETQFYIAETVLAIDSIHQLGFIHRDIKPDNLLLDSKGHVKLSDFGLCTGLKKAHRTEFYRNLNHSLPSDFTFQNMNSKRKAETWKRNRRQLAFATVGTPDYIAPEVFMQTGYNKLCDWWSLGVIMYEMLIGYPPFCSETPQETYKKVMNWKETLTFPPEVPISEKAKDLILRFCCEWEHRIGAPGVEEIKSNSFFEGVDWEHIRERPAAISIEIKSIDDTSNFDEFPESDILKPTVATSNHPETDYKNKDWVFINYTYKRFEGLTARGAIPSYMKAAK","amount of incorporated 32P (autophosphorylation), −S100B","[1]; GST-NDR1 variant, 1 microgram, autophosphorylated 2 hours without further additions, pmol ATP/pmol GST-NDR1",0.0192
same,"amount of incorporated 32P (autophosphorylation), +S100B","[1]; GST-NDR1 variant, 2 hours in the presence of 1 mM CaCl2 and 10 microM bovine S100B, in pmol ATP/pmol GST-NDR1",0.028
same,autophosphorylation rate of GST-NDR1 mutant (in words),[1]; compared with wild type,dramatically reduced autophosphorylation rate
same,"Specific activity of GST-NDR1 variants, −S100B",[2]; autophosphorylated 2 h in the absence of CaCl2 and S100B,0.514
same,"Specific activity of GST-NDR1 variants, +S100B",[2]; autophosphorylated 2 h in the presence of 1 mM CaCl2 and 10 mM bovine S100B,0.952
same,kinase activity of GST-NDR1 mutant (in words),[2]; compared with wild type,almost undetectable
same,"Specific activity of GST-NDR1 variants, CTRL",[2]; left without further treatment,0.16
same,interaction of HA-NDR variant with myc-hMOB1,[3],still interact with MOB1

# Reference: patent US8008452B2, “Phosphorylated Ndr kinase” (Novartis Forschungesstiftung, Zweigniederlassung Friedrich …, priority 2002, dated 2011)
